Data as given in patent US20120178124A1, “STEROL SIDE CHAIN-CLEAVING ENZYME PROTEIN AND USE THEREOF” (MITSUBISHI CHEMICAL CORPORATION, priority 2009, published 2012).
Several values for one entry are separate records, joined by “and”; a condition that tells them apart may be missing. Identical values can stand only once.

What was measured:
Format in all cases: biochemical
[1] = Kinetics analysis of CYP204A1 and CYPSS; conditions: for Specific activity: pH 7.5, 15° C., 60 minutes; for Km / Vmax: Lineweaver-Burk plot
Procedure: Moreover, the activity decrease rate when the substrate concentration is increased from 10 μM to 100 μM can also be obtained by conducting the conversion of 4-cholesten-3-one at a substrate concentration of 0.1 to 500 μM and then examining the relationship between the substrate concentration and the activity of the enzyme protein. Specifically, there is prepared 1 ml of a reaction solution, which comprises […] CYP204A1 or […] CYPSS204A, 96 μg/ml spinach-derived ferredoxin, 0.1 U/ml spinach-derived ferredoxin reductase protein, 3 U/ml glucose dehydrogenase, 60 mM glucose, 2 mM NADH and 2 mM NADPH. Tris-HCl is then added to the reaction mixture to adjust to pH 7.5. 20 μl of 4-cholesten-3-one used as a substrate, dissolved in DMSO to have a final concentration of 0.1, 0.5, 1, 2, 5, 10, 20, 50, 100 or 500 μM, is added to the reaction mixture. The reaction is initiated by addition of NADH and NADPH, and it can be carried out at 200 rpm at 15° C. for 60 minutes.
(§1) To 20 ml of the cell suspension prepared in (2) above, 680 μl of X10 Bug Buster (Novagen), 20 μl of Benzonase (Novagen), and 2 ml of 40 mg/ml lysozyme were added, and the obtained mixture was then shaken at 30° C. for 30 minutes to disintegrate the cells. Thereafter, the reaction solution was centrifuged to obtain the cell-free extract. The obtained, approximately 20 ml of cell-free extract was dialyzed against 1 L of Buffer R (20 mM KPB pH 7.4, 20% glycerol) two times, and the deposited precipitate was then removed by centrifugation. The cell-free extract obtained as a supernatant herein was used in the subsequent experiments.
Using the cell-free extract prepared in (3) above, conversion of 4-cholesten-3-one was carried out at substrate concentration of 0.1 to 500 μM, and the relationship between the substrate concentration and the enzyme protein activity was examined. The reaction solution was prepared, such that 1 ml of the buffer comprised 220 pmol CYP204A1 or 250 pmol CYPSS, 96 μg/ml spinach-derived ferredoxin, 0.1 U/ml spinach-derived ferredoxin reductase protein, 3 U/ml glucose dehydrogenase, 60 mM glucose, 2 mM NADH, and 2 mM NADPH. Tris-HCl was added to the reaction solution so as to adjust it to pH 7.5. 20 μl of 4-cholesten-3-one, which had been dissolved in DMSO to a final concentration of 0.1, 0.5, 1, 2, 5, 10, 20, 50, 100 or 500 μM, was added. The reaction was initiated by addition of NADH and NADPH, and it was carried out at 200 rpm at 15° C. for 60 minutes. Thereafter, 1.5 ml of ethyl acetate was added to the reaction solution to terminate the reaction, and extraction was carried out. Then, extraction was carried out again with 0.75 ml of ethyl acetate. The obtained ethyl acetate phase was solidified using evaporator, and the residue was then dissolved in 200 μl of methanol. Thereafter, progesterone was detected by HPLC analysis. The relationship between the substrate concentration and the enzyme protein activity, and kinetics parameters calculated by production of Lineweaver-Burk plot, is shown in Table 5.

[2] = Analysis of the optimum temperature, conversion of 4-cholesten-3-one by cell-free extract; conditions: for Specific activity: Tris-HCl pH 7.5, 4 hours, 4-cholesten-3-one to progesterone
Procedure: as §1
Using the cell-free extract prepared in (3) above, conversion of 4-cholesten-3-one was carried out at […]. The reaction solution was prepared, such that 1 ml of the buffer comprised 215 pmol/ml CYP204A1 or 391 pmol/ml CYPSS, 64 μg/ml spinach-derived ferredoxin, 0.1 U/ml spinach-derived ferredoxin reductase protein, 3 U/ml glucose dehydrogenase, 60 mM glucose, 50 μg/ml 4-cholesten-3-one, 2 mM NADH, and 2 mM NADPH. Tris-HCl was added to the reaction solution so as to adjust it to pH 7.5. The reaction was initiated by addition of NADH and NADPH, and it was carried out at 200 rpm for 4 hours, under temperature conditions of 10° C., 15° C., 20° C., 25° C., or 30° C. Thereafter, 1.5 ml of ethyl acetate was added to the reaction solution to terminate the reaction, and extraction was carried out. Then, extraction was carried out again with 0.75 ml of ethyl acetate. The obtained ethyl acetate phase was solidified using evaporator, and the residue was then dissolved in 200 μl of methanol. Thereafter, progesterone was detected by HPLC analysis. The enzyme protein activity for conversion of 4-cholesten-3-one to progesterone under various temperature conditions is shown in Table 1.

[3] = Kinetics analysis of CYP204A1 and CYPSS; conditions: 4-cholesten-3-one 100 μg/ml (so in the source)
[4] = 4-cholesten-3-one concn. 0.1 μM
[5] = 4-cholesten-3-one concn. 0.5 μM
[6] = 4-cholesten-3-one concn. 10 μM (reference)
[7] = 4-cholesten-3-one concn. 100 μM
[8] = 4-cholesten-3-one concn. 500 μM

CC(C)CCC[C@@H](C)[C@H]1CC[C@H]2[C@@H]3CCC4=CC(=O)CC[C@]4(C)[C@H]3CC[C@]12C [4-cholesten-3-one]
substrate inhibition ([1]; 4-cholesten-3-one 0.1 to 500 μM): causes substrate inhibition

B1: Sphingomonas subterranea NBRC16086 P450scc CYPSS204A (CYPSS), wild type, SEQ ID NO: 2 (Novosphingobium subterraneum) (protein)
chain: MASAAAGADGLPLLDGGVPLLGHLAQFFRDPVSVLKRGYRSKGRLFAMNFMGQRMNVMLGPEHNRFFFEETDKLLSIRESMPFFLKMFSPEFYSFAEMDEYLRQRAIIMPRFKAASMKQYVPVMVEESLNLVERLGEEGEFDLIPTLGPVVMDIAAHSFMGREFHEKLGHEFFELFRDFSGGMEFVLPLWLPTPKMVKSQRAKKKLHAILQSWIDKRRASPLDPPDFFQTMIETKYPDGRAVPDEIIRHLILLLVWAGHETTAGQVSWALADLLQNPGYQQVLREEVASLLGGSDGRALGWEQAVAMEKMDLALRETERLHPVAYMLSRKASADIERDGYRIRKGEFVLLAPSVSHRMEETFRNADAYDPERFNPQNPDAQIESNSLIGFGGGVHRCAGVNFARMEMKVLVAILLQNFDMELIDEVRPIAGASTYWPAQPCRVRYKRRKLDGAGGSADVAALAKAAGCPAHA
Vmax value compared with that of CYP204A1 ([1]; 4-cholesten-3-one): approximately 1.7 times
Specific activity [1, 4]: 1.9 mmol/min/mol
Specific activity [1, 5]: 20.0 mmol/min/mol
Specific activity ([1]; 4-cholesten-3-one concn. 1 μM): 36.5 mmol/min/mol
Specific activity ([1]; 4-cholesten-3-one concn. 2 μM): 49.5 mmol/min/mol
Specific activity ([1]; 4-cholesten-3-one concn. 5 μM): 70.4 mmol/min/mol
Specific activity relative to that at 10 μM [1, 6]: 100
Specific activity ([1]; 4-cholesten-3-one concn. 10 μM): 67.2 mmol/min/mol
Specific activity ([1]; 4-cholesten-3-one concn. 20 μM): 72.4 mmol/min/mol
Specific activity ([1]; 4-cholesten-3-one concn. 50 μM): 71.2 mmol/min/mol
Specific activity relative to that at 10 μM [1, 7]: 90.0
Specific activity [1, 7]: 60.5 mmol/min/mol
Specific activity [1, 8]: 33.6 mmol/min/mol
Km ([1]; 4-cholesten-3-one): 1.1 µM and ~1 µM
Vmax ([1]; 4-cholesten-3-one): 78.7 mmol/min/mol
Specific activity ([2]; 10° C.): 918 g/h/mol
Specific activity ([2]; 15° C.): 1279 g/h/mol
Specific activity ([2]; 20° C.): 1133 g/h/mol
Specific activity ([2]; 25° C.): 936 g/h/mol
Specific activity ([2]; 30° C.): 465 g/h/mol
optimum temperature for action (temperature of highest activity) ([2]; conversion of 4-cholesten-3-one to progesterone, pH 7.5): 15 °C
enzyme protein activity in comparison with that at 10 μM 4-cholesten-3-one [3]: 90%

B2: CYP204A1: P450scc from Novosphingobium aromaticivorans ATCC 700278, amino acid sequence SEQ ID NO: 23 (protein)
chain: MARAATAAGNGLPLLDGGVPLLGHLAQFFRDPVSVLKRGYRSKGRLFAMNFMGQRMNVMLGPEHNRFFFEETDKLLSIRESMPFFLKMFSPEFYSFAEMDEYLRQRSIIMPRFKAASMKQYVPVMVEESLNLVERLGEEGEFDLIPTLGPVVMDIAAHSFMGREFHEKLGHEFFELFRDFSGGMEFVLPLWLPTPKMVKSQRAKRKLHAILQSWIDKRRAAPLDPPDFFQTMIETKYPDGRPVPDEIIRHLILLLVWAGHETTAGQVSWALADLLQNPDYQKVLRGEISSLLGGSDGRDLGWEQAVAMEKMDLALRETERLHPVAYMLSRKARADIERDGYVIRKGEFVLLAPSVSHRMEETFRNPDAYDPERFNPANPDAQIESNSLIGFGGGVHRCAGVNFARMEMKVLVAILLQNFDMELMDEVRPIAGASTYWPAQPCRVRYRRRKLDGSEAGADMAALARAAGCPAHT
modifications: Novosphingobium aromaticivorans
Specific activity [1, 4]: 2.2 mmol/min/mol
Specific activity [1, 5]: 15.3 mmol/min/mol
Specific activity ([1]; 4-cholesten-3-one concn. 1 μM): 25.2 mmol/min/mol
Specific activity ([1]; 4-cholesten-3-one concn. 2 μM): 32.2 mmol/min/mol
Specific activity ([1]; 4-cholesten-3-one concn. 5 μM): 36.1 mmol/min/mol
Specific activity relative to that at 10 μM [1, 6]: 100
Specific activity ([1]; 4-cholesten-3-one concn. 10 μM): 43.1 mmol/min/mol
Specific activity ([1]; 4-cholesten-3-one concn. 20 μM): 42.7 mmol/min/mol
Specific activity ([1]; 4-cholesten-3-one concn. 50 μM): 33.5 mmol/min/mol
Specific activity relative to that at 10 μM [1, 7]: 66.6
Specific activity [1, 7]: 28.7 mmol/min/mol
Specific activity [1, 8]: 20.1 mmol/min/mol
Km ([1]; 4-cholesten-3-one): 1 µM and ~1 µM
Vmax ([1]; 4-cholesten-3-one): 47.4 mmol/min/mol
Specific activity ([2]; 10° C.): 507 g/h/mol
Specific activity ([2]; 15° C.): 698 g/h/mol
Specific activity ([2]; 20° C.): 719 g/h/mol
Specific activity ([2]; 25° C.): 550 g/h/mol
Specific activity ([2]; 30° C.): 285 g/h/mol
enzyme protein activity in comparison with that at 10 μM 4-cholesten-3-one [3]: 67%
